Experimental data reported in publication PMC12494544 (The Journal of Biological Chemistry, 2025).

Molecular target: the molecule itself
Assay: crystal structure; PseM (28-186) at 27 mg/ml; 0.1 M Mes monohydrate pH 7.0, 2.0 M NaCl, 1% benzamidine-HCl, 291 K; SAD, 2.0 Å, space group P4(3)2(1)2; homodimer in the asymmetric unit

B1: N-terminal-truncated PseM (residues from 28 to 186) (enzyme)
chain: STGDYWIVYGKGERYNNEVFVANATGILQQPKGIQSAQIIQLFEDRSMPTLTAYEVQFKCKERRVRFDNARAMRRIDNVITNVKTVDGWIDPEKYDYWLQRSFAFVCAPAIRDNNQMLPLGKMPIARMVQTVQAMFVELQGVQAKKQTMRDLDAMLGNE
notes: PseM (PA0989), P. aeruginosa, residues 28 to 186, without the N-terminal signal peptide
Q: With B1 as the protein, how does the “stoichiometry N” value read?
A: 2
